Two molecules from US20250296984A1, “THERAPEUTIC AND DIAGNOSTIC AGENTS AND USES THEREOF” (priority 2022, published 2025) can be followed below.

In experiment [1] the target is T1, human proteins on HuProt Human Proteome Microarray (Homo sapiens, UniProt Q13895).
T1 construct: purchased CDI Labs (HuProt); host or cells: yeast S. cerevisiae
T1 sequence (Q13895 1-437): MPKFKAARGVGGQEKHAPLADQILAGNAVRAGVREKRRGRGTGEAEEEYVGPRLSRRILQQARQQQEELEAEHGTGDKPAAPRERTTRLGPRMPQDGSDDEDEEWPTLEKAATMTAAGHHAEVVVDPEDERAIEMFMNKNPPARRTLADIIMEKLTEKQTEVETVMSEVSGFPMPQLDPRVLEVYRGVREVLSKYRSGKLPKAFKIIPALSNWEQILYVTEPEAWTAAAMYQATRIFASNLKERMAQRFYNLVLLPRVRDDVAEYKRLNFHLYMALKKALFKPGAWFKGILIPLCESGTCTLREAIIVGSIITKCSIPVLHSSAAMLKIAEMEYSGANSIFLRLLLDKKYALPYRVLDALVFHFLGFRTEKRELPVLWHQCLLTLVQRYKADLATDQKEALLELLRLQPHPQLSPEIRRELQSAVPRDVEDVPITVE
Description: HuProt Human Proteome Microarray, off-target human proteins. The experiment is classed as binding. Set-up: key to Z Score: Z = (F635 − mean F635 of all spots) / SD; average of duplicate spots. The following applies: Protein: BYSL. The source says: The HuProt™ Human Proteome Microarray provides the largest number of unique, full-length, individually purified human proteins on a single microscope slide. It provides >21,000 unique human proteins, isoform variants, and protein fragments—covering 16,794 unique genes. This includes 15,889 of the 19,613 canonical human proteins described in the Human Protein Atlas, with broad coverage across protein subclasses. This allows thousands of interactions to be profiled in a high-throughput manner. The full-length recombinant proteins are expressed in the yeast S. cerevisiae, purified, and printed on glass slides in duplicate along with a set of control proteins (GST, BSA, histones, IgG, etc.). The full list of the different proteins included in the HuProt™ Human Proteome Microarray as used in this Example is provided as “List B” in the Research Disclosures publication (ISSN 0374-4353, Questel Ireland Ltd) with database numbers 707018, 707019 and 707020, each entitled “Large scale protein arrange target protein identities” and each digitally published on 27 Jan. 2023, the contents of each of which are incorporated herein by reference in their entirety, fo the purposes of the disclosure of the proteins defined by “List B”. “List B” begins in Research Disclosures publication 707018, is continued in Research Disclosures publication 707019, and concludes Research Disclosures publications 707020, and so the three publications are to be read consecutively as a single disclosure of the “List B” proteins. The HuProt™ microarray is not restricted to a particular type of surface coating, although the default is glass coated with ultrathin nitrocellulose film for the non-covalent, yet irreversible, capture of active proteins to the surface.
Samples of humanised 7B1F3 and mouse 7B1F3 antibodies were analysed for binding specificities on HuProt™ human proteome arrays. A peptide with the sequence TDVLNQSKPVTL (“Peptide 3”) was added to the arrays at 0.1 mg/ml as a control.
After blocking, the arrays were probed with the antibody samples (0.1 μg/ml) at room temperature for 1 hour. Then the arrays were washed with TBST for 10 min×3 and probed with Alexa647-anti-human IgG Fc or Alexa647-anti-mouse IgG secondary antibodies under conditions optimized by CDI Labs for signal detection.
• Non-specific hits that directly bind to the secondary antibodies were eliminated from the analysis of the samples. • CDI software was used to quantify the specificity of each individual sample to specific proteins on the array based on Z Scores. • Z score is the average Z score of the duplicate spots of a given protein (each protein is printed in duplicate on a HuProt™ array). The Z score of each spot on a given array is calculated according to the algorithm below:
Z=[F635−F635(avg)]/F635(std) • F635(avg) and F635(std) are the average and standard deviation of the F635 values of all spots on the array, respectively. • S score is the difference of the Z Scores of a given protein and the one ranked next to it. If the S score of the top hit is >3, the antibody is considered to be highly specific for the top hit. • F635 is the average foreground signal intensity of 2 replicate spots of a given protein in the detection channel (635 nm). • B635 is the average background signal intensity of 2 replicate spots of a given protein in the detection channel (635 nm).

Experiment [2] deals with human heart muscle tissue. Description: Immunohistochemistry (IHC) on human cardiac tissues. As to conditions: FIG. 19 B. As to the method:
Cytomegalovirus (CMV) control slides containing CMV positive lung tissue and CMV negative myometrium (product number #3240A) were obtained from Newcomer Supply Inc., Middleton, WI 53562-2579, USA. Tissue micro-arrays (TMAs) were obtained from US Biomax Inc., Derwood, MD 20855, USA, and included tumor tissues #BR1008b, #BS17016c, #BCN721b and normal tissues #FDA662a and heart tissues #HEN241a.
The paraffin sections were sequentially immersed into a. 100% xylene three times (5 min each); b. 100% ethanol twice (2 min each); c. 95% ethanol twice (2 min each). The slides were rinsed twice in water for 5 min to remove ethanol. […], the slides were immersed in 3% H2O2 for 5 minutes and washed thereafter twice (2×) with distilled water. The slides were then immersed in the working citrate buffer (pH 6.0) and covered with a lid. The buffer was heated in the microwave until it had boiled, and then kept in the steamer for 15 min.
The sections were cooled at room temperature for 30 min and washed with PBS. 5% BSA blocking solution was then added to the HIER treated samples and they were incubated at 37° C. for 30 min. […] Digitized pictures were taken by Olympus VS120 scanner and analyzed by using OlyVia 3.2 software (Olympus Corporation, 20101 Tokyo, Japan) by senior Pathologist. […]

B1: 7B1F3: mouse IgG1 kappa antibody against US28 ECD1 Peptide-N; VH SEQ ID NO: 211, VL SEQ ID NO: 213 (antibody, V domains shown)
VH: EVQLQQSGAELAKPGASVKMSCKASGYTFTNYWMHWVKQRPGQGLEWIGYVNPRTGYTEYNQKFKDKATLTADKSSRTAYMQLSSLTSEDSAVYSCARILNGTGFAYWGQGTLVTVSA
VL: DIVLTQSPSSLTVSVGEKFTMSCKSSQSLLYSSNQKNYLAWYQQKPGQSPKLLIYWASTRESGVPDRFTGSGSGTDFTLAISSVKPEDLAIYYCQQYYSFPLTFGAGTKLEIK
modifications: Mature form of VH sequence of 7B1F3, without the leader sequence; Mature form of VL sequence of 7B1F3, without the leader sequence
Turning to B1, in experiment [1], the F635 is given as 2210 and the “Z Score” value stood at 6.3.

B2: 13-5G6-1D3: mouse monoclonal IgG1 kappa antibody against US28 ECD3; VH SEQ ID NO: 12, VL SEQ ID NO: 18 (antibody, V domains shown)
VH: EVKLVESGGGLVQPGGSLRLACATSGFTFTDYYMSWVRQPPGKALEWLGFIRSKANGYTTEYSASVKGRFTISRDNSQSILYLQMNTLRSEDSATYYCARDERRTAWLAYWGQGTLVTVSA
VL: DVLMTQTPLSLPVSLGDQASISCRSSQSIVHSNGNTYLDWYLQKPGQSPKLLIYKVSNRFSGVPDRFSGSGSGTDFTLKISRVEAEDLGVYYCFQGSHVPTWTFGGGTKLEIK
modifications: Mature form of VH sequence of 1D3, without the leader sequence; Mature form of VL sequence of 1D3, without the leader sequence
For B2, the “off-target binding in IHC” value in experiment [2] is reported as “did not show any general off-target binding”.
